Data as given in the supplement of paper PMC6755084.

B1: minF1; a variant is named by its letters at N, in order (parent)
chain: GAGACCGCAACTGAAAAGTTGTTNNNNAANNNNGGNTNNATTTCTGCACGTAGAAGCAAAAGGC

Variants of: B1
Assay: fraction ligated after 30 min (ligated reads / total reads); higher = more ligase activity
Conditions: with F1*subA RNA substrate (template-directed ligation), 42 °C
Experimental: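 Chip-synthesised pool of minF1 ligase ribozyme variants (single and double substitutions, single to quadruple deletions, bulge and P2 designed variants) was transcribed with T7 and reacted as a pool with excess substrate F1*subA for 30 min at 42 C in 50 mM EPPS pH 8.5, 25 mM MgCl2. Ligated and unligated RNAs were separated by PAGE, barcoded by RT and deep sequenced; fraction ligated = ligated reads / total reads, relative activity = FL / FL of wild-type minF1 (0.76); sequencing FL correlated with PAGE (R2 = 0.98). Sequences are the DNA template of the ribozyme.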

Row | Variant | fraction ligated
1 | ACAGTGGAGTG G34T | 0.0352
2 | ACAGATGGGTT G34A T37G A40G | 0.000615
3 | TCGAGGATGTA T23A | 0.0024
4 | TCGATATGTGA T23A | 0.00444
5 | TCGATGGTGTA T23A | 0.00392
6 | TCGAGGTGTGA A29T | 0.00308
7 | TGAAGATGTGA T23A A28T A29G | 0.00603
8 | ACAGGGATTGA A29T | 0.00506
9 | ACAGATGGGTT G34A T37G | 0.00125
10 | TCAGTGGGTGA T23A | 0.0036
11 | TCAGATGGGTT T23A G34A T37G A40G | 0
12 | TCAGTGGAGTG | 0.00572
13 | TCAGTGGAGTA | 0.00247
14 | ATAAGGAGTGA | 0.000696
15 | TCGAGGATGTG T23A | 0.00538
16 | TCAGTGAGTGA T23A | 0.0046
17 | TCAGATATTGA | 0.00261
18 | TCGATGGTGTG T23A | 0.00391
19 | AGAAGGAGTGA T23A A29T | 0.00185
20 | AGAAGGATGTG A29T | 0.00505
21 | AGAAGGAGTGA A29T | 0.00436
22 | TCGATGATGTA T23A | 0.00263
23 | ACGAGGATGTA A29T | 0.00647
24 | AGAAGGAGTGA T23C A29T | 0.0019

Row | Variant | fraction ligated
25 | ACAGATGGGTT G34T T37G | 0.0016
26 | TCGAGATGTGA T23A A29G | 0.00586
27 | TCGAGATGTGA T23A A29T | 0.00198
28 | ACGATATGTGA | 0.00174
29 | AGAAGATGTGA T23C A28T A29G | 0.00411
30 | CGAAGGTGTGA T23A A29T | 0.000502
31 | TCGAGATGTGA T23A | 0.00396
32 | TCAGTGGAGTG T23A G34T | 0.0406
33 | TCGATGGTGTA | 0.00285
34 | TCGATGGTGTG | 0.00467
35 | TCAGGATGTGA T23A A28T A29G | 0.00354
36 | TCAGTGGATGA T23A | 0.00222
37 | TCAGTGAGTGA | 0.00311
38 | ACGATGATTGA | 0.00224
39 | TCGAGGAGTGA | 0.00338
40 | ACAGATGGGTG | 0.00567
41 | ACAGATGGGTA | 0.00187
42 | ATAAGATGTGA A28T A29G | 0.0107
43 | ACAGTATGTGA | 0.00319
44 | TCAGGGTGTGA | 0.00203
45 | TCAGTGGATGA | 0.00185
46 | TCGAGGATGTA A29T | 0.00472
47 | TCAGGGTGTGA T23A | 0.00148
48 | TCAGGGATGTG T23A | 0.00389

Row | Variant | fraction ligated
49 | TCAGTGATGTG T23A | 0.00385
50 | ACAGATATTGA | 0.0012
51 | CGAAGGATGTG A29T | 0.0152
52 | TCGAGGATTGA T23A | 0.00135
53 | TCAGATGGGTA T23A G34A | 0.0017
54 | TCAGATGGGTA T23A G34T | 0.00312
55 | AGAAGGTGTGA T23A A29T | 0.00188
56 | ACAGGGTGTGA A29T | 0.000904
57 | TCAGATGGGTT T23A G34T T37G A40G | 0.00157
58 | ATAAGGAGTGA A29T | 0.00469
59 | AGAAGGATGTG T23A A29T | 0.00517
60 | TCAGGATGTGA A28T A29G | 0.00322
61 | TCGAGATGTGA T23A A28T A29G | 0.00546
62 | TCGATGGATGA | 0.00257
63 | CGAAGGTGTGA A29T | 0.00384
64 | TCGATGAGTGA | 0.00207
65 | ACAGATGGGTG G34T | 0.00406
66 | ACAGATGGGTG G34A | 0.0045
67 | ACAGATGGGGT G34A G35T T37G A40T | 0.00109
68 | TCGATGTGTGA T23A | 0.00234
69 | ATAAGATGTGA A29T | 0.00321
70 | ATAAGATGTGA A29G | 0.00765
71 | TCAGATGGGTT G34T T37G A40G | 0.000744
72 | ACGATGGAGTT G34T T37G A40G | 0.00103

Row | Variant | fraction ligated
73 | TCAGGGAGTGA T23A | 0.0029
74 | ATAAGGATTGA | 0.0033
75 | ACAGATGTTGA | 0.00338
76 | ACAGGGAGTGA | 0.00202
77 | TCAGTGGTTGA T23A | 0.00216
78 | ACGATGGAGTT G34T T37G | 0.00155
79 | TGAAGGAGTGA T23A A29T | 0.00234
80 | TCAGATGGGTG T23A G34T | 0.00324
81 | TCAGATGGGTG T23A G34A | 0.00659
82 | TCAGGATGTGA T23A A29G | 0.00232
83 | TCAGGATGTGA T23A A29T | 0.00222
84 | TCAGTGGTGTG | 0.00278
85 | TCAGTGGTGTA | 0.00201
86 | TCAGATGAGTA T23A | 0.00194
87 | ACGAGATGTGA A28T A29G | 0.00619
88 | TCGAGGTGTGA T23A | 0.00322
89 | TCAGGGATTGA T23A A29T | 0.0045
90 | TGAAGGATTGA T23A A29T | 0.00566
91 | TCAGATGGTGA | 0.00356
92 | TCAGATGAGTG | 0.00463
93 | TCAGATGAGTA | 0.0022
94 | TGAAGGATGTG T23A A29T | 0.00766
95 | TCGATGTGTGA | 0.0025
96 | TCAGATGGGTA T23A | 0.00335

Row | Variant | fraction ligated
97 | TCAGATGTTGA | 0.0015
98 | TCAGGATGTGA T23A | 0.00221
99 | TCAGTGGTTGA | 0.00261
100 | ACAGATGAGTT G34T T37G | 0.000925
101 | TCGAGGAGTGA T23A A29T | 0.00108
102 | CGAAGGATGTG T23A A29T | 0.0123
103 | CGAAGGATTGA A29T | 0.00943
104 | TCGATGGAGTA G34T | 0.143
105 | TCGATGATGTG T23A | 0.00459
106 | TCAGTGGAGTA T23A | 0.00382
107 | ACAGATGGTGA | 0.00375
108 | TCAGATGAGTG T23A | 0.00683
109 | TGAAGGATGTA T23A A29T | 0.00285
110 | TCAGATGAGTG G34T | 0.00362
111 | TGAAGGAGTGA A29T | 0.000652
112 | TCGATGGGTGA | 0.00376
113 | TCGAGGATGTA T23A A29T | 0.00462
114 | ATAAGGATTGA A29T | 0.00367
115 | CGAAGATGTGA A29T | 0.00363
116 | CGAAGATGTGA A29G | 0.00313
117 | ACAGTGGAGTA | 0.00375
118 | ACAGTGGAGTG | 0.00883
119 | TCAGTGGGTGA | 0.00233
120 | ACAGATGGGTA G34A | 0.00284

Row | Variant | fraction ligated
121 | ACAGATGGGTA G34T | 0.00288
122 | ACAGGGATTGA | 0.00266
123 | ACAGTGATGTG | 0.00312
124 | ACAGTGATGTA | 0.00194
125 | ACGATGGAGTA | 0.00344
126 | ACGATGGAGTG | 0.0132
127 | ACGATGGAGTG G34T | 0.156
128 | TCAGATATTGA T23A | 0.00254
129 | TCGATGGAGTG T23A | 0.02
130 | ATAAGGATGTG A29T | 0.00947
131 | CGAAGATGTGA A28T A29G | 0.00384
132 | TCAGATGATGA T23A | 0.00196
133 | TCAGTGGAGTA G34T | 0.00892
134 | TCGATGGATGA T23A | 0.00236
135 | TCAGATGGGGT G34A G35T T37G A40T | 0.00121
136 | ATAAGGTGTGA | 0.00238
137 | ACGAGATGTGA | 0.00357
138 | TCGATGGAGTT T23A G34T T37G A40G | 0.00165
139 | ACGATGGAGTA G34T | 0.0869
140 | ACGATGGATGA | 0.0034
141 | AGAAGATGTGA T23A A28T A29G | 0.00449
142 | ACAGGATGTGA A28T A29G | 0.0031
143 | ACGATGTGTGA | 0.00232
144 | TCAGGGATGTA T23A | 0.00201

Row | Variant | fraction ligated
145 | AGAAGGTGTGA T23C A29T | 0.00383
146 | TGAAGGATTGA A29T | 0.0036
147 | AGAAGGATGTA A29T | 0.00434
148 | TCGATATGTGA | 0.00214
149 | ACAGATGGGTT G34A G35T T37G A40G | 0.000584
150 | TCAGTGATTGA T23A | 0.00266
151 | ACAGTGGTGTG | 0.00543
152 | ACAGTGGTGTA | 0.000648
153 | ACAGATGTGTG | 0.0127
154 | ACAGATGTGTA | 0.00227
155 | TCAGATGAGTT G34T T37G | 0.0017
156 | TCAGATGGGTG G34A | 0.00479
157 | TCAGATGGGTG G34T | 0.00277
158 | TCAGATATGTG T23A | 0.00384
159 | TCAGATGGGTT T23A G34A T37G | 0.000991
160 | TCGATGGAGTA T23A | 0.00851
161 | TCAGTGATGTA T23A | 0.00165
162 | TCAGATGGGTA | 0.000871
163 | TCAGATGGGTG | 0.005
164 | TCAGGGATGTG T23A A29T | 0.0102
165 | TCAGGATGTGA | 0.00269
166 | AGAAGGATGTA T23A A29T | 0.00442
167 | TCAGATGTGTG | 0.00413
